Experimental data as given in article PMC2191977 (The Journal of Experimental Medicine, 1995).

Tests used:
Test in all cases: flow cytometry on cells
B7 L179V = molecular target: T1, B7 L179V (mouse, UniProt Q00609 38-306, L179V)
T1 sequence (looked up): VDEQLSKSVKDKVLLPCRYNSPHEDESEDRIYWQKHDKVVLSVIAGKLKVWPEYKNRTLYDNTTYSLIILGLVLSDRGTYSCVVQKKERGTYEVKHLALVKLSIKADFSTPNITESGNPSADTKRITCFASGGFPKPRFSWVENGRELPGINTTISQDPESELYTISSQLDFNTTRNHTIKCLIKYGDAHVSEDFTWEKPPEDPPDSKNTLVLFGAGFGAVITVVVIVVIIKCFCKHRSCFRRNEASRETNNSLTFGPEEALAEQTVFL

B7 E180D = molecular target: T2, B7 E180D (mouse, UniProt Q00609 38-306, E180D)
T2 sequence (looked up): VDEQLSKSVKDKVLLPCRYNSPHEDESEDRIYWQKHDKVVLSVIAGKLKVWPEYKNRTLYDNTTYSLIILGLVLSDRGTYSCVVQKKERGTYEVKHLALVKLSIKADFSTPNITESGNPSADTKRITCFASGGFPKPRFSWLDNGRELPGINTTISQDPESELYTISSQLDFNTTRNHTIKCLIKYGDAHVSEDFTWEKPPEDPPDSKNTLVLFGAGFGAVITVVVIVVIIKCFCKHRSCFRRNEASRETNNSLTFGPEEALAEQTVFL

B7 QD/LE (Q194L, D195E) = molecular target: T3, B7 QD/LE (Q194L, D195E) (mouse, UniProt Q00609 38-306, Q194D195>LE)
T3 sequence (looked up): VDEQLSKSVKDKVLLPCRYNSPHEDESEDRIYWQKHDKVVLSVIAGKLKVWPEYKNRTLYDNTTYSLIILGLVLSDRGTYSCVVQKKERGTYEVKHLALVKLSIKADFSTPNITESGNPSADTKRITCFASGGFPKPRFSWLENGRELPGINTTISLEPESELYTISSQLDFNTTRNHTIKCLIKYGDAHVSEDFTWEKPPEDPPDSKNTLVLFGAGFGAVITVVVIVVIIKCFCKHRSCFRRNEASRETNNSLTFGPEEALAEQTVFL

[1] = molecular target: T4, B7 QDP/LEH (Q194L, D195E, P196H) (mouse, UniProt Q00609 38-306, Q194D195P196>LEH)
T4 sequence (looked up): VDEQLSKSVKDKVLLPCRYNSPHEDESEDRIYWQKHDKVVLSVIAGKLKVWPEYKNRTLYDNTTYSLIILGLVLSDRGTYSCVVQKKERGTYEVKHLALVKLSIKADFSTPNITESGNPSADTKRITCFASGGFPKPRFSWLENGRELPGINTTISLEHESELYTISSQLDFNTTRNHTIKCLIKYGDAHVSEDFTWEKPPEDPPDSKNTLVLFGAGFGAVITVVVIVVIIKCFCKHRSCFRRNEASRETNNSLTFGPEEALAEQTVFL

murine B7 (wild type) = molecular target: T5, murine B7 (wild type) (mouse, UniProt Q00609 38-306)
T5 sequence (looked up): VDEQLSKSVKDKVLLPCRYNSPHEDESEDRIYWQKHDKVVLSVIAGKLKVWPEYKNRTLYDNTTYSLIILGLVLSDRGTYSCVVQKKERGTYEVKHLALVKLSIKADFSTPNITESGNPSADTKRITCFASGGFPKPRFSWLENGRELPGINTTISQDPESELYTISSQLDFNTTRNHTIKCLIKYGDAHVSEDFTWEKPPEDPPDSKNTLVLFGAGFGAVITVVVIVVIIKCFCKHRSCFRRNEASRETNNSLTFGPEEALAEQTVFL

B7 K173E = molecular target: T6, B7 K173E (mouse, UniProt Q00609 38-306, K173E)
T6 sequence (looked up): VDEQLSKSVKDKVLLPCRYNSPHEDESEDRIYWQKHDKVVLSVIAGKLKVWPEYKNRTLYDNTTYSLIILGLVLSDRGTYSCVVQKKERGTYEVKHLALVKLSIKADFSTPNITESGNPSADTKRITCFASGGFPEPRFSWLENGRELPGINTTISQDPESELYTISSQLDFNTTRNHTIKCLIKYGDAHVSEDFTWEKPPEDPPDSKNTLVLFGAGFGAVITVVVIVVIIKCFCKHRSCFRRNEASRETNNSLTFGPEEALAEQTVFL

- % wild-type B7 binding (normalised to anti-B7 mAb 10.16A.1) (B7 L179V): 18%
- MF (mean fluorescence, control subtracted) (B7 L179V): 12 MF
- % wild-type B7 binding (normalised to anti-B7 mAb 10.16A.1) (B7 E180D): 68%
- MF (mean fluorescence, control subtracted) (B7 E180D): 38 MF
- % wild-type B7 binding (normalised to anti-B7 mAb 10.16A.1) (B7 QD/LE (Q194L, D195E)): 11%
- MF (mean fluorescence, control subtracted) (B7 QD/LE (Q194L, D195E)): 3 MF
- % wild-type B7 binding (normalised to anti-B7 mAb 10.16A.1) [1]: 3%
- MF (mean fluorescence, control subtracted) [1]: 1 MF
- % wild-type B7 binding (normalised to anti-B7 mAb 10.16A.1) (murine B7 (wild type)): 100%
- % wild-type B7 binding (normalised to anti-B7 mAb 10.16A.1) (B7 K173E): 77%
- MF (mean fluorescence, control subtracted) (B7 K173E): 44 MF
B1: CD28Ig (Fc fusion, mouse, UniProt P31041 20-150, looked up)
chain: NKILVKQSPLLVVDSNEVSLSCRYSYNLLAKEFRASLYKGVNSDVEVCVGNGNFTYQPQFRSNAEFNCDGDFDNETVTFRLWNLHVNHTDIYFCKIEFMYPPPYLDNERSNGTIIHIKEKHLCHTQSSPKL
